# Data as given in patent US5985836A, “Alpha-1 proteinase inhibitor binding peptides” (Bayer Corporation, priority 1998, dated 1999).
# Ends that are not written are not given here.
# Experiments:
# Type in all cases: binding
# A1PI [1] = biological target: T1, A1PI (Homo sapiens, UniProt P01009); experiment: A1PI purification from 5 mg hSA + 1 mg A1PI on peptide column, A1PI mass balance; details: for Mass Protein per Eluate Fraction, 1M NaCl / Mass Protein per Eluate Fraction, 2% Acetic Acid / Mass Protein per Eluate Fraction, Flow / Percent Eluted by Fraction, 1M NaCl / Percent Eluted by Fraction, 2% Acetic Acid / Percent Eluted by Fraction, 3M NaCl / Percent Eluted by Fraction, Flow / Mass Protein per Eluate Fraction, 2% Ac. Acid / Mass Protein per Eluate Fraction, 3M NaCl / Percent Eluted by Fraction, 2% Ac. Acid: A1PI, 5 mg hSA + 1 mg A1PI; for Mass Protein per Eluate Fraction, 1M NaCl / Mass Protein per Eluate Fraction, 2% Acetic Acid / Mass Protein per Eluate Fraction, Flow / Mass Protein per Eluate Fraction, 2% Ac. Acid / Mass Protein per Eluate Fraction, 3M NaCl: * Below detection limit; for Mass AlPI Eluted in Acid Eluate: nephelometry
# T1 construct: Human plasma is currently the only approved source of therapeutic AlPI
# T1 sequence (P01009 25-418): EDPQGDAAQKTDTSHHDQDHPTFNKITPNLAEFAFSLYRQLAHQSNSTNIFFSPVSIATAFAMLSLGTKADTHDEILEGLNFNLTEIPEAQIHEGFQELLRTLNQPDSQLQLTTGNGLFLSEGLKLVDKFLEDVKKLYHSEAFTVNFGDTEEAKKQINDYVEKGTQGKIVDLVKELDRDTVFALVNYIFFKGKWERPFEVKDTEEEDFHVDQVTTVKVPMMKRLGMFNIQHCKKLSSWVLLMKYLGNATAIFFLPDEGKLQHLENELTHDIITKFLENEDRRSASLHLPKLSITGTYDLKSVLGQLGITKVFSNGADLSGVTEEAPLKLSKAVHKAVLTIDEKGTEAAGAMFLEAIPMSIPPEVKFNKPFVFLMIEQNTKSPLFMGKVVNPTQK
# Summary of the method: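 Mass balance by immunonephelometry of fractions from step elutions (1M NaCl, 3M NaCl, 2% acetic acid, neutralised with Tris) at 865 μl/min. Sample was a mixture of 1 mg A1PI and 5 mg hSA held 10 min on peptide-derivatised Toyopearl columns (0.1 mmole/g) at 4 °C or 20 °C.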
# A1PI [2] = biological target: T1, A1PI; experiment: Purification of A1PI from Effluent II+III on peptide column, A1PI mass balance; details: 1 ml Eff. II+III, 4° C.; for Mass A1PI per Eluate Fraction, 2% Acetic Acid / Mass A1PI per Eluate Fraction, Flowthrough / Mass A1PI per Eluate Fraction, 1M NaCl: * Below detection limit
# Summary of the method: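 Peptide-ligand columns were loaded with 1 ml Cohn Effluent II+III (20% v/v ethanol, 20-25 mg/ml hSA, ~1 mg/ml A1PI, other plasma proteins at 0.1-1 mg/ml) using a 10 min residence time at 4° C. Step elutions at 865 μl/min used 1M NaCl, 3M NaCl, then 2% acetic acid, and protein mass balances were tracked across fractions.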
# A1PI [3] = biological target: T1, A1PI; experiment: A1PI yield from dialyzed (aqueous) Effluent II+III; details: 4° C.; for Mass A1PI per Eluate Fraction, 1M NaCl / Mass A1PI per Eluate Fraction, 2% Acetic Acid / Mass A1PI per Eluate Fraction, Flowthrough: 1 ml dialyzed Eff. II+III (ethanol removed); for Percent Eluted by Fraction, 1M NaCl / Percent Eluted by Fraction, 2% Acetic Acid / Percent Eluted by Fraction, Flowthrough: A1PI, 1 ml dialyzed Eff. II+III
# Summary of the method: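 Effluent II+III was dialyzed at 4° C against equilibration buffer (15,000 MWCO) to remove ethanol. It was then applied under the same binding conditions as neat feed, and A1PI was tracked by nephelometry in the 1M NaCl and acid eluates.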
# [4] = Table 10, 4° C., relative to total loaded
# [5] = Table 10, 20° C., relative to total loaded
# [6] = Table 19, 4° C., relative to total loaded
# [7] = Table 19, 20° C., relative to total loaded
# [8] = 4° C., relative to total eluted
# [9] = 20° C., relative to total eluted
# [10] = A1PI, * as in Tables 4, 5 (below detection limit)
substance,measurement,setting,value
VIFLVR,"Mass Protein per Eluate Fraction, 1M NaCl","A1PI [1]; Table 10, 4° C.",0.05 mg
same,"Mass Protein per Eluate Fraction, 2% Acetic Acid","A1PI [1]; Table 10, 4° C.",0.61 mg
same,"Mass Protein per Eluate Fraction, Flow","A1PI [1]; Table 10, 4° C.",0.13 mg
same,"Percent Eluted by Fraction, 1M NaCl",A1PI [1]; [4],7%
same,"Percent Eluted by Fraction, 2% Acetic Acid",A1PI [1]; [4],77%
same,"Percent Eluted by Fraction, 3M NaCl",A1PI [1]; [4],0%
same,"Percent Eluted by Fraction, Flow",A1PI [1]; [4],16%
same,"Mass Protein per Eluate Fraction, 1M NaCl","A1PI [1]; Table 10, 20° C.",0.02 mg
same,"Mass Protein per Eluate Fraction, 2% Acetic Acid","A1PI [1]; Table 10, 20° C.",0.60 mg
same,"Mass Protein per Eluate Fraction, Flow","A1PI [1]; Table 10, 20° C.",0.17 mg
same,"Percent Eluted by Fraction, 1M NaCl",A1PI [1]; [5],2%
same,"Percent Eluted by Fraction, 2% Acetic Acid",A1PI [1]; [5],76%
same,"Percent Eluted by Fraction, 3M NaCl",A1PI [1]; [5],0%
same,"Percent Eluted by Fraction, Flow",A1PI [1]; [5],22%
same,"Mass Protein per Eluate Fraction, 1M NaCl","A1PI [1]; Table 19, 4° C.",0.05 mg
same,"Mass Protein per Eluate Fraction, 2% Acetic Acid","A1PI [1]; Table 19, 4° C.",0.61 mg
same,"Mass Protein per Eluate Fraction, Flow","A1PI [1]; Table 19, 4° C.",0.13 mg
same,"Percent Eluted by Fraction, 2% Acetic Acid",A1PI [1]; [6],77%
same,"Percent Eluted by Fraction, 3M NaCl",A1PI [1]; [6],0%
same,"Percent Eluted by Fraction, Flow",A1PI [1]; [6],16%
same,"Mass Protein per Eluate Fraction, 1M NaCl","A1PI [1]; Table 19, 20° C.",0.02 mg
same,"Mass Protein per Eluate Fraction, 2% Acetic Acid","A1PI [1]; Table 19, 20° C.",0.60 mg
same,"Mass Protein per Eluate Fraction, Flow","A1PI [1]; Table 19, 20° C.",0.17 mg
same,"Percent Eluted by Fraction, 2% Acetic Acid",A1PI [1]; [7],76%
same,"Percent Eluted by Fraction, 3M NaCl",A1PI [1]; [7],0%
same,"Percent Eluted by Fraction, Flow",A1PI [1]; [7],22%
same,"Mass A1PI per Eluate Fraction, 2% Acetic Acid",A1PI [2]; Table 11,0.57 mg
same,"Mass A1PI per Eluate Fraction, Flowthrough",A1PI [2]; Table 11,0.13 mg
same,"Percent Eluted by Fraction, 1M NaCl","A1PI [2]; Table 11, A1PI",0%
same,"Percent Eluted by Fraction, 2% Acetic Acid","A1PI [2]; Table 11, A1PI",82%
same,"Percent Eluted by Fraction, Flowthrough","A1PI [2]; Table 11, A1PI",18%
same,"Mass A1PI per Eluate Fraction, 1M NaCl",A1PI [2]; Table 13,0.07 mg
same,"Mass A1PI per Eluate Fraction, 2% Acetic Acid",A1PI [2]; Table 13,0.91 mg
same,"Mass A1PI per Eluate Fraction, Flowthrough",A1PI [2]; Table 13,0.32 mg
same,"Percent Eluted by Fraction, 1M NaCl","A1PI [2]; Table 13, A1PI",5%
same,"Percent Eluted by Fraction, 2% Acetic Acid","A1PI [2]; Table 13, A1PI",70%
same,"Percent Eluted by Fraction, Flowthrough","A1PI [2]; Table 13, A1PI",25%
same,"Mass A1PI per Eluate Fraction, 1M NaCl",A1PI [3],0.09 mg
same,"Mass A1PI per Eluate Fraction, 2% Acetic Acid",A1PI [3],0.37 mg
same,"Mass A1PI per Eluate Fraction, Flowthrough",A1PI [3],0.25 mg
same,"Percent Eluted by Fraction, 1M NaCl",A1PI [3],13%
same,"Percent Eluted by Fraction, 2% Acetic Acid",A1PI [3],51%
same,"Percent Eluted by Fraction, Flowthrough",A1PI [3],36%
VIWLVR,Mass AlPI Eluted in Acid Eluate,"A1PI [1]; 250 μg AlPI injected with 5 mg hSA, 20° C.",0.18 mg
same,Mass AlPI Eluted in Acid Eluate,"A1PI [1]; 500 μg AlPI injected with 5 mg hSA, 20° C.",0.48 mg
same,Mass AlPI Eluted in Acid Eluate,"A1PI [1]; 1000 μg AlPI injected with 5 mg hSA, 20° C.",0.70 mg
same,"Mass Protein per Eluate Fraction, 1M NaCl",A1PI [1]; 4° C.,0.20 mg
same,"Mass Protein per Eluate Fraction, 2% Ac. Acid",A1PI [1]; 4° C.,0.27 mg
same,"Mass Protein per Eluate Fraction, 3M NaCl",A1PI [1]; 4° C.,0.01 mg
same,"Mass Protein per Eluate Fraction, Flow",A1PI [1]; 4° C.,0.29 mg
same,"Percent Eluted by Fraction, 1M NaCl",A1PI [1]; [8],26%
same,"Percent Eluted by Fraction, 2% Ac. Acid",A1PI [1]; [8],35%
same,"Percent Eluted by Fraction, 3M NaCl",A1PI [1]; [8],1%
same,"Percent Eluted by Fraction, Flow",A1PI [1]; [8],38%
same,"Mass Protein per Eluate Fraction, 1M NaCl",A1PI [1]; 20° C.,0.08 mg
same,"Mass Protein per Eluate Fraction, 2% Ac. Acid",A1PI [1]; 20° C.,0.65 mg
same,"Mass Protein per Eluate Fraction, 3M NaCl",A1PI [1]; 20° C.,0.02 mg
same,"Mass Protein per Eluate Fraction, Flow",A1PI [1]; 20° C.,0.08 mg
same,"Percent Eluted by Fraction, 1M NaCl",A1PI [1]; [9],9%
same,"Percent Eluted by Fraction, 2% Ac. Acid",A1PI [1]; [9],80%
same,"Percent Eluted by Fraction, 3M NaCl",A1PI [1]; [9],2%
same,"Percent Eluted by Fraction, Flow",A1PI [1]; [9],9%
same,"Mass Protein per Eluate Fraction, 1M NaCl","A1PI [1]; Table 10, 4° C.",0.21 mg
same,"Mass Protein per Eluate Fraction, 2% Acetic Acid","A1PI [1]; Table 10, 4° C.",0.31 mg
same,"Mass Protein per Eluate Fraction, 3M NaCl","A1PI [1]; Table 10, 4° C.",0.03 mg
same,"Mass Protein per Eluate Fraction, Flow","A1PI [1]; Table 10, 4° C.",0.28 mg
same,"Percent Eluted by Fraction, 1M NaCl",A1PI [1]; [4],26%
same,"Percent Eluted by Fraction, 2% Acetic Acid",A1PI [1]; [4],38%
same,"Percent Eluted by Fraction, 3M NaCl",A1PI [1]; [4],4%
same,"Percent Eluted by Fraction, Flow",A1PI [1]; [4],35%
same,"Mass Protein per Eluate Fraction, 1M NaCl","A1PI [1]; Table 10, 20° C.",0.08 mg
same,"Mass Protein per Eluate Fraction, 2% Acetic Acid","A1PI [1]; Table 10, 20° C.",0.65 mg
same,"Mass Protein per Eluate Fraction, 3M NaCl","A1PI [1]; Table 10, 20° C.",0.02 mg
same,"Mass Protein per Eluate Fraction, Flow","A1PI [1]; Table 10, 20° C.",0.08 mg
same,"Percent Eluted by Fraction, 1M NaCl",A1PI [1]; [5],9%
same,"Percent Eluted by Fraction, 2% Acetic Acid",A1PI [1]; [5],80%
same,"Percent Eluted by Fraction, 3M NaCl",A1PI [1]; [5],2%
same,"Percent Eluted by Fraction, Flow",A1PI [1]; [5],9%
same,"Percent Eluted by Fraction, 1M NaCl",A1PI [2]; A1PI,9%
same,"Percent Eluted by Fraction, 2% Acetic Acid",A1PI [2]; A1PI,43%
same,"Percent Eluted by Fraction, 3M NaCl",A1PI [2]; A1PI,0%
same,"Percent Eluted by Fraction, Flow",A1PI [2]; A1PI,48%
same,"Mass Protein per Eluate Fraction, 1M NaCl",A1PI [2]; [10],0.10 mg
same,"Mass Protein per Eluate Fraction, 2% Acetic Acid",A1PI [2]; [10],0.51 mg
same,"Mass Protein per Eluate Fraction, Flow",A1PI [2]; [10],0.58 mg
same,"Mass A1PI per Eluate Fraction, 1M NaCl",A1PI [2]; Table 11,0.10 mg
same,"Mass A1PI per Eluate Fraction, 2% Acetic Acid",A1PI [2]; Table 11,0.51 mg
same,"Mass A1PI per Eluate Fraction, Flowthrough",A1PI [2]; Table 11,0.58 mg
same,"Percent Eluted by Fraction, 1M NaCl","A1PI [2]; Table 11, A1PI",9%
same,"Percent Eluted by Fraction, 2% Acetic Acid","A1PI [2]; Table 11, A1PI",43%
same,"Percent Eluted by Fraction, Flowthrough","A1PI [2]; Table 11, A1PI",48%
same,"Mass A1PI per Eluate Fraction, 1M NaCl",A1PI [3],0.15 mg
same,"Mass A1PI per Eluate Fraction, 2% Acetic Acid",A1PI [3],0.23 mg
same,"Mass A1PI per Eluate Fraction, Flowthrough",A1PI [3],0.24 mg
same,"Percent Eluted by Fraction, 1M NaCl",A1PI [3],24%
same,"Percent Eluted by Fraction, 2% Acetic Acid",A1PI [3],37%
same,"Percent Eluted by Fraction, Flowthrough",A1PI [3],39%
